Data on one substance can be found in article PMC8039031.

In the assay the target is CREPT (RPRD1B) (UniProt Q9NQG5). Briefly: co-IP. The settings on record: reference: wild type; sites Y705.

Turning to STAT3 (from UniProt P40763) Y705F, the “binding against the reference” value is on record as “lost”.
